Measurements from patent publication US20180163216, “GENE EXPRESSION IN BACTEROIDES” (Massachusetts Institute of Technology, published 2018).

What was measured:
Int12 serine integrase = test system: T1, Int12 serine integrase; assay: cell_activity; details: flipping in <1 day in mouse gut with rhamnose; also inversion by PCR in vitro culture
T1 sequence: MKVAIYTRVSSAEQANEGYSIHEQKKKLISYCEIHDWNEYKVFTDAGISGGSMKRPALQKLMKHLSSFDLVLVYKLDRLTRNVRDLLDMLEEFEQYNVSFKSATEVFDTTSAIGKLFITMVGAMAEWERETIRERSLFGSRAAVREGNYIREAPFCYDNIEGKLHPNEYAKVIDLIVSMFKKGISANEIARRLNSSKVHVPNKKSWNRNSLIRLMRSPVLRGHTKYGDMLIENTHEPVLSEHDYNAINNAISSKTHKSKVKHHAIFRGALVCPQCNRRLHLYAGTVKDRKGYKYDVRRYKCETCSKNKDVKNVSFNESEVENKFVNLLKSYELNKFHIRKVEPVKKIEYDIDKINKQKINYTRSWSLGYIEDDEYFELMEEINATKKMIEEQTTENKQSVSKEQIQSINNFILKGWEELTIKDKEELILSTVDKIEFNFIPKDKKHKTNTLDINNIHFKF

[1] = test system: RhaR (AraC/XylS-family activator) (Bacteroides thetaiotaomicron); assay: cell_activity; details: printed 104-fold (10^4); rhamnose-induced NanoLuc; K=0.3 mM rhamnose, n=1.4
LacIQ repressor [2] = target: T2, LacIQ repressor (Escherichia coli, UniProt P03023 SEQ:5-363); assay: cell_activity; fold induction by IPTG; K=86 uM IPTG; details: expressed from PBT1311 in B. thetaiotaomicron; chain copies: 4
T2 sequence (P03023 2-360): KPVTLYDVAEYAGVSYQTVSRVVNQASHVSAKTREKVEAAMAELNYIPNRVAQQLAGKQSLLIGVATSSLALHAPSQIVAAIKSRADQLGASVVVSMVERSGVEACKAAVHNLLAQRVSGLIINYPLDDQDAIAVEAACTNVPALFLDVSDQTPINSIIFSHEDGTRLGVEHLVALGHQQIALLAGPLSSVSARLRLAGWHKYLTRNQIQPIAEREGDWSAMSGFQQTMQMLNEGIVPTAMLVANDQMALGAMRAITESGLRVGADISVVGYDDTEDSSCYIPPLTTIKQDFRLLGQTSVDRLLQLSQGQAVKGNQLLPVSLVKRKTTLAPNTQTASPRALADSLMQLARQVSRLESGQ
Description: (§1) Next, an IPTG-inducible system was developed. Pairs of LacO1 operator sites were inserted in the strong PcfxA promoter in three locations: upstream of the −33 element (O1), between the −33 and −7 elements (O2) or just downstream of the transcription start site (O3) (FIGS. 7A-7B).

LacIQ repressor [3] = target: T2, LacIQ repressor; assay: cell_activity; fold induction by IPTG; K=6 uM IPTG; details: expressed from PBT1311 in B. thetaiotaomicron; chain copies: 4
Description: as §1

Int12 attB/attP in memory array gave an activity (Int12 serine integrase) of over 90%.

Work on “TATTTCGGAGAAAACATGCATAAATCATGCTTTTTTTGCATAAAAAGTAAAATTTATACTGATGTAAGGTTTGGCTATGCAGATTTGTGTCAAAATGCACATCCTTTCTATCAAAATGCGTAAGGAAAAGGAGGAAGGAACCGCCTATCTTTGCAATGTAGGTAAATGGATACCTTAAATATATAGACAAAATACC (double strand) [PBT3763]” yielded an activity [1] of 10000 fold.

B1: PLacO13 (dsDNA)
DNA 1: TTACAAAGAAAATTCGACAAACTGTTATTTTTCTATCTATTTAAATTGTGAGCGGATAACAATTTGGGTGGGAAACTTTAGTTATGTACCTTTGTCGGCAATTGTGAGCGGATAACAATTAAATAAAGATATTCTCGTCAAACAAATATAAATAATATAAAC
DNA 2: GTTTATATTATTTATATTTGTTTGACGAGAATATCTTTATTTAATTGTTATCCGCTCACAATTGCCGACAAAGGTACATAACTAAAGTTTCCCACCCAAATTGTTATCCGCTCACAATTTAAATAGATAGAAAAATAACAGTTTGTCGAATTTTCTTTGTAA
With B1 the activity (LacIQ repressor [2]) was 8 fold.

B2: PLacO23 (dsDNA)
DNA 1: TTACAAAGAAAATTCGACAAACTGTTATTTTTCTATCTATTTATTTGAATTGTGAGCGGATAACAATTACCTTTGTCGGCAATTGTGAGCGGATAACAATTAAATAAAGATATTCTCGTCAAACAAATATAAATAATATAAAC
DNA 2: GTTTATATTATTTATATTTGTTTGACGAGAATATCTTTATTTAATTGTTATCCGCTCACAATTGCCGACAAAGGTAATTGTTATCCGCTCACAATTCAAATAAATAGATAGAAAAATAACAGTTTGTCGAATTTTCTTTGTAA
In the case of B2, the activity (LacIQ repressor [3]) is reported as 22 fold.
